For one substance, other: Log2 LFQ ratio (TurboID-PML WT / TurboID-PML 3MAS) results are on record in article PMC8602451.

Some targets named below: RAD54L2; SIMC1; GATAD2B (UniProt Q8WXI9); PIAS2 (UniProt O75928); IRF2BP2 (UniProt Q7Z5L9); SNW1 (UniProt Q13573); XAB2 (UniProt Q9HCS7); PIAS1 (UniProt O75925); RBM22; TRIM24 (UniProt O15164); ZNF280B (UniProt Q86YH2); PIAS3 (UniProt Q9Y6X2); PIAS4 (UniProt Q8N2W9); HSPA8; FUS; TRIM33 (UniProt Q9UPN9); EXOSC9; DAXX; ZNF280A.
Common to all, as to test: TurboID proximity labelling, streptavidin pull-down, LC-MS
What all share (settings): U2OS stable cell lines; 50 μM biotin for 2 h; read off a plot

UniProt O75925, sequence (O75925 whole entry): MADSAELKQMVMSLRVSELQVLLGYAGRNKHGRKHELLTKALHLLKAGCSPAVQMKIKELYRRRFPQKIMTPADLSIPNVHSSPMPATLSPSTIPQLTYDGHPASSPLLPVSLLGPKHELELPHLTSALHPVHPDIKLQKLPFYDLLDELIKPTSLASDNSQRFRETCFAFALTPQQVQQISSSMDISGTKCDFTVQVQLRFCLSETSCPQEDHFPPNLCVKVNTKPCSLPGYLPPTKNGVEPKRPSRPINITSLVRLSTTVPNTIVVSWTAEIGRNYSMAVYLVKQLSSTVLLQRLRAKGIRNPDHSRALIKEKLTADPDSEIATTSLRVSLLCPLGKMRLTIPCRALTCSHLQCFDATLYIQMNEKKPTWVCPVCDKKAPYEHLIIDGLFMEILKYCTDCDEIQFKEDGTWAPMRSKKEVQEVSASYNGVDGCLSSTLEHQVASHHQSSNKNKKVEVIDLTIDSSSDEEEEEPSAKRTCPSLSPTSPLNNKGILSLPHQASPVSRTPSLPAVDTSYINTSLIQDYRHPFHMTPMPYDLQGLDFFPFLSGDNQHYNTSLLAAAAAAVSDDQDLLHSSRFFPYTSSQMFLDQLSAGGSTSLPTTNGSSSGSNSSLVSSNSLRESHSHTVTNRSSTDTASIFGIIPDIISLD
UniProt O15164, sequence (O15164 whole entry): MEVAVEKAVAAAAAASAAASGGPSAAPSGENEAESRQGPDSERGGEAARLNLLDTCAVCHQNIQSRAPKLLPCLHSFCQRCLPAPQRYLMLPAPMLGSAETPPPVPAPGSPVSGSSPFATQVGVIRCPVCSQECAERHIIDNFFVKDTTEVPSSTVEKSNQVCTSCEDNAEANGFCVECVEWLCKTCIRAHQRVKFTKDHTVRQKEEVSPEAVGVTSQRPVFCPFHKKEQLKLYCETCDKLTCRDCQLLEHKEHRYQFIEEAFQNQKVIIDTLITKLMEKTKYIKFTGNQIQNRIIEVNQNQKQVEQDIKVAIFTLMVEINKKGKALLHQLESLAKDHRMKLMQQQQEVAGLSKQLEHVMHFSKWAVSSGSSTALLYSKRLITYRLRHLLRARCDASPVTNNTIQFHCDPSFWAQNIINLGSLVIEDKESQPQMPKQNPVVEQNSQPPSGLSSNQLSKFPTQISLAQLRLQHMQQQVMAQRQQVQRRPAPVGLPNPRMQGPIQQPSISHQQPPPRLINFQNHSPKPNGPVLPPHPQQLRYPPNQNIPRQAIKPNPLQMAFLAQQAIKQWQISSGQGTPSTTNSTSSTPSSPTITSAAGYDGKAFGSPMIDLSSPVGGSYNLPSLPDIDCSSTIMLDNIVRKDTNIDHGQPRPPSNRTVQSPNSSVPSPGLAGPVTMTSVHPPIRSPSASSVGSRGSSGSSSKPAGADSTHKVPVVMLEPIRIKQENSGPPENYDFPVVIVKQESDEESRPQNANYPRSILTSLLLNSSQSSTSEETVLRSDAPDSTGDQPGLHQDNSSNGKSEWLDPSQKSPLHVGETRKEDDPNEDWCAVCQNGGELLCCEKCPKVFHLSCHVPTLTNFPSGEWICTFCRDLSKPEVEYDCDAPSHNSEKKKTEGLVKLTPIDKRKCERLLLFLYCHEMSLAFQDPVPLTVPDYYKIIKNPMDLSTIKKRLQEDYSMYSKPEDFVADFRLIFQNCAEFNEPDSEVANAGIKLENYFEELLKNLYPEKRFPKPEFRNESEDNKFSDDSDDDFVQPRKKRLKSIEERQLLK
UniProt Q86YH2, sequence (Q86YH2 whole entry): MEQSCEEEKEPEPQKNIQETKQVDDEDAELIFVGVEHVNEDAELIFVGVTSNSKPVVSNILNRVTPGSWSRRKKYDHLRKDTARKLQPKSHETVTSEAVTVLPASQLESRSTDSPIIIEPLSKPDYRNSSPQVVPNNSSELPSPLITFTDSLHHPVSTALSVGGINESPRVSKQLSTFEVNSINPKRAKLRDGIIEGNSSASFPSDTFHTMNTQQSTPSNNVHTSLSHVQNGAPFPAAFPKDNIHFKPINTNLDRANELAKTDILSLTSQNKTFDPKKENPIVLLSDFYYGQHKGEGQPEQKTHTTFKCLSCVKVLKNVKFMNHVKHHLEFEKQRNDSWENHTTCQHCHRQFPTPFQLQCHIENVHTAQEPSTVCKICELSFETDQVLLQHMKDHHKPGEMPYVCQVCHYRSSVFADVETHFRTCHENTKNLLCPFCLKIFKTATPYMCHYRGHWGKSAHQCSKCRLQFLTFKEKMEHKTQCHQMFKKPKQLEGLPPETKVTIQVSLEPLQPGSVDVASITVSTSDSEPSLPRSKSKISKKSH
UniProt O75928, sequence (O75928 whole entry): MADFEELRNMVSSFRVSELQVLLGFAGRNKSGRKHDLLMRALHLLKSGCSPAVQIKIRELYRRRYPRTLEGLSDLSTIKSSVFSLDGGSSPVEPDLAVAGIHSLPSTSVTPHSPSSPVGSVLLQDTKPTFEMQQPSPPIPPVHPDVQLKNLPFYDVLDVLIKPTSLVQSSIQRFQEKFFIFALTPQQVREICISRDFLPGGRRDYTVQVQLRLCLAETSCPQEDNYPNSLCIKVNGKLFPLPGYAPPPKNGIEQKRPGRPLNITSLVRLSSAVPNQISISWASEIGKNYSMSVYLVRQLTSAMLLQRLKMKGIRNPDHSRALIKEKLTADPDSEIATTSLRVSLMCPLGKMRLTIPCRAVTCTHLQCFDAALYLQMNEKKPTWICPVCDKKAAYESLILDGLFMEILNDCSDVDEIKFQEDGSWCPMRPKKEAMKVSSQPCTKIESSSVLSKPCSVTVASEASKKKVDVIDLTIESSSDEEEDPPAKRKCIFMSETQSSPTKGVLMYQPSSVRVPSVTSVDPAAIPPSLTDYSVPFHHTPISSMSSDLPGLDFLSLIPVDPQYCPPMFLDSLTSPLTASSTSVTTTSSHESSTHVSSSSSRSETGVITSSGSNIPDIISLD
UniProt Q7Z5L9, sequence (Q7Z5L9 whole entry): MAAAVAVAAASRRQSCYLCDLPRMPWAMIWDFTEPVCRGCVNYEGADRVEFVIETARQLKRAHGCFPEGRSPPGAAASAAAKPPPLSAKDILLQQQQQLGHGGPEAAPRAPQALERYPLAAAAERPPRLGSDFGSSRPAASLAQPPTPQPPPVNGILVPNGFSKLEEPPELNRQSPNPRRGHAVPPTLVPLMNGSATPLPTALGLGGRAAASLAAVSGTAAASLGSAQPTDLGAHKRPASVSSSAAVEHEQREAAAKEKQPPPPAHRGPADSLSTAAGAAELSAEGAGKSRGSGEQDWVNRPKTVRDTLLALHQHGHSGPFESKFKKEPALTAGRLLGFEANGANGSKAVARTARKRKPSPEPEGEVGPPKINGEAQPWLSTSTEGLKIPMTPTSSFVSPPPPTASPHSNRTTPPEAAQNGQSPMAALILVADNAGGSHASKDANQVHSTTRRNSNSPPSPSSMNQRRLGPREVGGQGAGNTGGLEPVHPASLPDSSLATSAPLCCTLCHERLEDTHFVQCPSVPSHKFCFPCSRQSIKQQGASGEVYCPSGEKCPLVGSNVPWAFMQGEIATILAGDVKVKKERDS
UniProt Q8N2W9, sequence (Q8N2W9 whole entry): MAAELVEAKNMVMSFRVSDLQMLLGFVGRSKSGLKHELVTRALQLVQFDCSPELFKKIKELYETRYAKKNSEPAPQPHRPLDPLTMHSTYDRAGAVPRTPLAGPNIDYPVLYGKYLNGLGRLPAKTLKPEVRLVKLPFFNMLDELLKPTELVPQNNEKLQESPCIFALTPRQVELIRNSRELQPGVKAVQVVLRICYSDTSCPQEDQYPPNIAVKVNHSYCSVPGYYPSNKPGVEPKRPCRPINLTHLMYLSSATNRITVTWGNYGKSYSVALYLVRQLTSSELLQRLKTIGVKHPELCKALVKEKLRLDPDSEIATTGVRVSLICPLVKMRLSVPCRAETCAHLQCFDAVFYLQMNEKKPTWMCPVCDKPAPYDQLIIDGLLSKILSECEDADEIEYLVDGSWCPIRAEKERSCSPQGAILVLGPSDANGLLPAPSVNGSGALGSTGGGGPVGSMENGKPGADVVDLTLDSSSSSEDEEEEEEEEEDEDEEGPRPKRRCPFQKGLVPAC
UniProt Q8WXI9, sequence (Q8WXI9 whole entry): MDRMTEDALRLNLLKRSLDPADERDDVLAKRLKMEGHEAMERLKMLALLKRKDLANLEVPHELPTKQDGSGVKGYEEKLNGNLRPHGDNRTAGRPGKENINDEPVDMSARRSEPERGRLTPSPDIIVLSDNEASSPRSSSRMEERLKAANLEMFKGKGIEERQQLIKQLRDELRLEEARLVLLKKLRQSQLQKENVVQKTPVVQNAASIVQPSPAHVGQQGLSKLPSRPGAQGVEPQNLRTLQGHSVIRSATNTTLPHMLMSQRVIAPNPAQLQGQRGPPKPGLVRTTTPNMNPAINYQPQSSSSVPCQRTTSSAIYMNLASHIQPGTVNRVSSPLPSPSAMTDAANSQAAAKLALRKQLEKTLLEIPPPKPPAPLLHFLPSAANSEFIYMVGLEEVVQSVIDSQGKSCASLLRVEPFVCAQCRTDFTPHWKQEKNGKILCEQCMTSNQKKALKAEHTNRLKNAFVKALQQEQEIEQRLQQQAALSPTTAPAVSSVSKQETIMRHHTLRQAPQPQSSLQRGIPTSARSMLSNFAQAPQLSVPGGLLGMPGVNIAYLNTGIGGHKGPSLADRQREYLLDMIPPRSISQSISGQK

Consider “FLTbID-PML^WT (from UniProt P29590-12) 3MAS (K65; K160; K490 and SIM; replacement residues not printed)”, for which the other: Log2 LFQ ratio (TurboID-PML WT / TurboID-PML 3MAS) is 5.4 Log2 LFQ with RAD54L2; 5.9 Log2 LFQ in the test with SIMC1; 1.4 Log2 LFQ with GATAD2B; 2.3 Log2 LFQ with PIAS2; 0.15 Log2 LFQ with IRF2BP2; 0.58 Log2 LFQ with SNW1. For the same substance, the other: Log2 LFQ ratio (TurboID-PML WT / TurboID-PML 3MAS) in the test with XAB2 turned out to be 0.1 Log2 LFQ; with PIAS1, 3.5 Log2 LFQ; with RBM22, 3.5 Log2 LFQ; with TRIM24 it was 3.4 Log2 LFQ; in the test with ZNF280B, 4.8 Log2 LFQ; with PIAS3, 3.6 Log2 LFQ. In addition, the other: Log2 LFQ ratio (TurboID-PML WT / TurboID-PML 3MAS) with PIAS4 was determined as 3.7 Log2 LFQ; with HSPA8, 0.55 Log2 LFQ; with FUS, 4.5 Log2 LFQ; with TRIM33 it was 3.4 Log2 LFQ; in the test with EXOSC9 it was 1.8 Log2 LFQ; in the test with DAXX, 2.3 Log2 LFQ. Besides, the other: Log2 LFQ ratio (TurboID-PML WT / TurboID-PML 3MAS) with ZNF280A was found to be 2.9 Log2 LFQ.
